Data from patent publication US20200225235A1.

Molecular target: anti-GASP-1 polyclonal antibody raised against a GASP-1 fragment consisting of … (SEQ ID NO: 2)
Test: competitive ELISA: free peptide against plate-bound BSA-GASP-1 conjugate for the biotinylated antibody

EEASPEAVAGVGFESK [GASP-1 peptide … (SEQ ID NO: 2)]
difference in OD values between zero and 0.3 ng/ml competing peptide: 1.1 OD (450 nm)
